Reference: patent US7205387B2, “Recombinant polypeptide useful for neurotrophin receptor mediated gene delivery and as neurotrophin agonist” (Agency for Science, Technology and Research, priority 2003, dated 2007)

Legend:
[1] = test system: COS7 (neurotrophin receptor negative) cells; assay: Gene delivery in vitro (pCAGluc luciferase reporter), COS7 cells; assay type: cell-based, African green monkey; settings: triple complexes with protamine, 0.1 μg pCAGluc/well
Protocol: (§1) A PC12 (rat pheochromocytoma) cell line was obtained from ATCC (American Type Culture Collection, Manassas, Va., USA) and cultured in RPMI-1640 medium supplemented with 10% fetal bovine serum (FBS) and 5% horse serum. PC12 cells are known to express TrkA and p75^NTR receptors. A COS7 (African green monkey kidney fibroblast) cell line was obtained from ATCC and cultured in Dulbecco's modified Eagle's medium (DMEM) supplemented with 10% fetal bovine serum, 50 U/ml penicillin, and 50 μg/ml streptomycin. The cells were maintained in a 37° C., 5% CO2, humidified incubator.
(§2) To determine the transfection efficiencies of our nucleic acid delivery systems, we employ a reporter plasmid, pCAGluc (a gift from Yoshiharu Matsuura, National Institute of Infectious Diseases, Tokyo, Japan), encoding firefly luciferase under the control of the composite promoter, CAG. CAG comprises the chicken β-actin promoter and the cytomegalovirus immediate early enhancer.
TrkA-targeting gene delivery complexes were tested for transfection efficiency in vitro in PC12 (TrkA and p75^NTR positive) cells and COS7 (neurotrophin receptor negative) cells. […]
One to two days after transfection, the cell culture medium was removed and the cells were rinsed in phosphate-buffered saline (PBS). […] The total protein concentration of each lysate was determined using the DC Protein assay (Bio-Rad, Hercules, Calif., USA). […]

plasmid DNA = assay: DNA retardation assay (agarose gel electrophoresis); assay type: binding
Protocol: This assay qualitatively assesses the ability of a polypeptide or polycation to bind to DNA and thus to retard its migration (by decreasing its charge/mass ratio) through an agarose gel under electrophoresis. For a range of N/P ratios, polypeptide was added to 0.1 μg of plasmid DNA made up to 20 μl with either HEPES-buffered saline (HBS, 150 mM NaCl, 29 mM HEPES, pH 7.3) or 5% glucose. The mixtures were vortexed and incubated at room temperature for 30 minutes before being subjected to electrophoresis in a 0.8–1.0% Tris-borate-EDTA agarose gel stained with ethidium bromide for visualization under ultraviolet light.

[2] = test system: PC12 (TrkA and p75^NTR positive) cells; assay: Gene delivery in vitro (pCAGluc luciferase reporter), PC12 cells; assay type: cell-based, rat
Protocol: as §1, §2
TrkA-targeting gene delivery complexes were tested for transfection efficiency in vitro in PC12 (TrkA and p75^NTR positive) cells and COS7 (neurotrophin receptor negative) cells. The cells were grown to 50–70% confluency in microplate wells (24-, 48-, or 96-well plates). The gene delivery complexes were prepared according to specifications presented for each example. Transfection was accomplished by replacing the serum-enriched medium with half the usual volume of reduced-serum medium, Opti-MEM (Invitrogen), containing the gene delivery complexes. Where specifically mentioned, 100 μM of chloroquine was also added to help the complexes escape from endosomes. After four hours of incubation, the cells were restored to the normal medium volume and serum concentration, either by topping up with medium containing twice the usual serum concentration (RPMI-1640 with 20% FBS and 10% horse serum for PC12) or by completely replacing the medium.
One to two days after transfection, the cell culture medium was removed and the cells were rinsed in phosphate-buffered saline (PBS). Enough Reporter Lysis Buffer (Promega, Wisconsin, Md., USA) to cover the bottom surface was added to each well (50 μl/well for 48-well plates). After one freeze-thaw cycle, the lysates were tested for luciferase activity using the Luciferase Assay System (Promega) and a single-tube luminometer (Berthold Lumat L B 9507, Bad Wildbad, Germany). The total protein concentration of each lysate was determined using the DC Protein assay (Bio-Rad, Hercules, Calif., USA). The results were expressed in relative light units (RLU) per milligram of total protein.

[3] = triple complexes with protamine (2 μg per μg DNA), 0.1 μg pCAGluc/well

B1: DsbC-NL4-10K: chimeric recombinant protein: NL4-10K attached to the C-terminus of DsbC, an E. coli disulfide bond isomerase (protein)
chain: MKKGFMLFTLLAAFSGFAQADDAAIQQTLAKMGIKSSDIQPAPVAGMKTVLTNSGVLYITDDGKHIIQGPMYDVSGTAPVNVTNKMLLKQLNALEKEMIVYKAPQEKHVITVFTDITCGYCHKLHEQMADYNALGITVRYLAFPRQGLDSDAEKEMKAIWCAKDKNKAFDDVMAGKSVAPASCDVDIADHYALGVQLGVSGTPAVVLSNGTLVPGYQPPKEMKEFLDEHQKMTSGKGSTSGSGHHHHHHSAGLVPRGSCTTTHTFVKALTMDGKQAAWRFIRIDTACKKKKKKKKKK
modifications: DsbC-NL4-10K
notes: chimeric recombinant protein: NL4-10K attached to the C-terminus of DsbC, an E. coli disulfide bond isomerase
effect on protamine-mediated gene delivery [1]: did not improve gene delivery
DNA binding / retardation of DNA migration (in words) (plasmid DNA): binds to DNA but cannot fully condense it
effect of pre-treatment with free protein on DsbC-NL4-10K/DNA/PEI600 transfection ([2]; 30 minutes before transfection, compared to bovine serum albumin pre-treatment): greatly reduced the transfection efficiency
N/P ratio of maximum transfection efficiency [2, 3]: 1 N/P ratio
protein/DNA ratio of maximum transfection efficiency [2, 3]: 0.3 nmol/µg
